Changes are numbered by the printed parent chain.
B1: 12D2-E5 Fab (Fab, V domains shown)
VH: EVKLVESGGGLVQPGRSLRLSCAASGFNFYAYWMGWVRQAPGKGLEWIGEIKKDGTTINYTPSLKDRFTISRDNAQNTLYLQMTKLGSEDTALYYCAREERDGYFDYWGQGVMVTVSS
VL: QFVLTQPNSVSTNLGSTVKLSCKRSTGNIGSNYVNWYQQHEGRSPTTMIYRDDKRPDGVPDRFSGSIDRSSNSALLTINNVQTEDEADYFCQSYSSGIVFGGGTKLTVL
B2: CODV-Fab BFX-9B8-G6 × CD3 (bispecific antibody, part only; not given: CD3 arm, linkers, constant domains, tag, V domains shown, not shown: another chain or arm of the molecule; a dimerising Fc or GST; small tags and cut ends)
VH: EVKLQESGPSLVQSSQTLSLTCTVSGFSLTSYHIHWVRQPPGKGLEWMGVMWSDGDTSYSSALKSRLSISRDTSQSQVFLKMNSLQTEDTATYYCARGDYSSYIYLWFAYWGQGTLVTVSS
VL: DIVMTQSPSSLAVSAGETVTINCKSSQSFLSSGDERNYVAWYQHKPGQSPKLLIYWASTRHSGVPDRFIGSGSGTDFTLTISSVQAEDLAIYYCQQYYDTPLTFGSGTKLEIK
B3: CODV-Fab BFX-9D7-C8 × CD3 (bispecific antibody, part only; not given: CD3 arm, linkers, constant domains, tag, V domains shown, not shown: another chain or arm of the molecule; a dimerising Fc or GST; small tags and cut ends)
VH: B2 VH with P40T, S60N, D99Y, I104L
VL: B2 VL with A15E, E35G, R36K, H44Y, H61Q, S83T
B4: CODV-Fab BFX-9F6-G3 × CD3 (bispecific antibody, part only; not given: CD3 arm, linkers, constant domains, tag, V domains shown, not shown: another chain or arm of the molecule; a dimerising Fc or GST; small tags and cut ends)
VH: QVQLQESGPTLVKPGDSVKMSCKASGYTFTDYIIHWVKQSHGKSLEWIGYINPYSDGTNYNEKFKSKATLTVDKSTSTAYMEFSRLTSEDSAIYFCALNYGSYYAMDAWGQGTSVTVSS
VL: DIQMTQSPASLSASLGETVTIECRPSEDIHSNVAWYQQKPGNSPQLLIYDASNLADGVPSRFSGSGSGTQYSLKINSLQSEDVASYFCHQYNIYPYTFGSGTKLELK
B5: CODV-Fab BFX-2F8-D6 × CD3 (bispecific antibody, V domains shown, not shown: a dimerising Fc or GST; small tags and cut ends)
VH: QVQLKESGPGLVQPSQTLSLTCTVSGFSLTSYGVSWVRQPPGKGLEWIATISSAGSTYYDLVLKSRLSITRDTSKSQVFLKVHSLQTEDTAIYLCARDAPVFNYGSYNAMDSWGQGTSVTVSS
VL: DIQMTQSPSFLSATVGDRVTINCKASQNINKYLNWYQQKLGEAPKRLIYNTNSLQTGIPSRFSGSGSGTDYTLTISSLQPEDVATYFCLQHKSGLTFGSGTKLEIK
B6: humanized 4B4 Fab 4B4_20 (VL2F / VH6C) (Fab, V domains shown)
VH: QVQLVESGGGVVQPGRSLRLSCAASGFTFSNAWMHWVRQAPGKQLEWVAQIKARSNNYATYYADSVKGRFTISRDDSKSTLYLQMNSLRAEDTAVYYCRGTYYASKPFDYWGQGTLVTVSS
VL: DIVMTQTPLSLSVTPGQPASISCKSSQSLVHDNANTYLSWYLQKPGQSPQSLIYKVSNRFSGVPDRFSGSGSGTDFTLKISRVEAEDVGVYYCGQGTQYPFTFGSGTKVEIK
B7: CODV-Fab BFX-3E3-D3 × CD3 (bispecific antibody, part only; not given: CD3 arm, linkers, constant domains, V domains shown, part only)
VH: QVQLQESGPGLVQPSQTLSLTCTVSGFSLTTYDVHWVRQPPGKGLEWMGRIQNGGITDYNSALKSRLIISRDTSKSQVFLKMNSVQTEDTAMYFCAKTGSYFYAFDHWGQGTLVTVSS
VL: QFVLTQPNSVSTNLGSTVKLSCKRNTGNIGSNYVNWYQQHEGRSPTTMIYRDDKRPDGVPDRFSGSIDRSSNSALLTINNVQTEDEADYFCQSYSSGINIIFGGGTKLTVL
B8: CODV-Fab 7G3 × OKT3 (bispecific antibody, part only; not given: OKT3 variable domains, full chains, V domains shown, part only)
VH: EVQLQQSGPELVKPGASVKMSCKASGYTFTDYYMKWVKQSHGKSLEWIGDIIPSNGATFYNQKFKGKATLTVDRSSSTAYMHLNSLTSEDSAVYYCTRSHLLRASWFAYWGQGTLVTVSA
VL: DFVMTQSPSSLTVTAGEKVTMSCKSSQSLLNSGNQKNYLTWYLQKPGQPPKLLIYWASTRESGVPDRFTGSGSGTDFTLTISSVQAEDLAVYYCQNDYSYPYTFGGGTKLEIK
B9: 1E6 Fab (Fab, V domains shown)
VH: EVQLVETGGSLVQPGKSLKLTCATSGFTFSYAWMHWVRQSPDKQLQWVAQIKAKSNNYATYYAESVEGRFTISRDDSKSSVYLQMNSLKEEDTAIYYCRGVYYGLLGLDAWGQGTSVTVSS
VL: DVVMTQTPVSLSVRLGGQVSISCRSSQSLVHNNGNTYLSWFLQKPGQSPQLLIYKVSNRFSGISDRFSGSASGTDFTLKISRVEPDDLGVYYCGQGTHYPFTFGSGTKLEIK
B10: 5B1-G2 Fab (Fab, V domains shown)
VH: EVQVVETGGSLVQPGKSLKLTCATSGFSFSNAWMHWVRQSPEKQLEWVAQIKDKANNYATYYAESVKGRFTISRDDSKGSIYLQMNSLKEEDTAVYYCRGLYYGLFPSDYWGQGVMVTVSS
VL: B9 VL with R14S, F41Y, Q43L, S70G, A71G, V83L, V90I, H98Q
B11: 13H2 Fab (Fab, V domains shown)
VH: EEELVETGGSLVQPGKSLKLTCATSGFTFSNAWMHWVRQSPDKQLEWVAQIKAKSNNYATYYAESVKGRFTISRDDSKSSVYLQMNNLKEEDTAIYYCRYVHYGLAPMDAWGQGTSVTVSS
VL: B9 VL with R14S, F41Y, P45A, A71G, T77I, Y91F, H98Q, S105A, I111L
B12: humanized 4B4 Fab 4B4_17 (VL2A / VH2B) (Fab, V domains shown)
VH: EVQLVETGGGLVQPGGSLKLTCATSGFTFSNAWMHWVRQSPEKGLEWVAQIKARSNNYATYYADSVKGRFTISRDDSKSTIYLQMNSLRAEDTAIYYCRGTYYASKPFDYWGQGVMVTVSS
VL: B9 VL with R14S, L15P, Q18P, N32D, F41S, L51V, I63V, S68T, A71G, H98Q

Key:
[1] = target: Macaca fascicularis CD3ε/δ-Fc fusion heterodimer (Macaca fascicularis) (UniProt Q95LI8); test: SPR, steady state
Chain of Macaca fascicularis CD3ε/δ-Fc fusion heterodimer (Macaca fascicularis) (chain, as listed by the source mutant, chain 1 of 2): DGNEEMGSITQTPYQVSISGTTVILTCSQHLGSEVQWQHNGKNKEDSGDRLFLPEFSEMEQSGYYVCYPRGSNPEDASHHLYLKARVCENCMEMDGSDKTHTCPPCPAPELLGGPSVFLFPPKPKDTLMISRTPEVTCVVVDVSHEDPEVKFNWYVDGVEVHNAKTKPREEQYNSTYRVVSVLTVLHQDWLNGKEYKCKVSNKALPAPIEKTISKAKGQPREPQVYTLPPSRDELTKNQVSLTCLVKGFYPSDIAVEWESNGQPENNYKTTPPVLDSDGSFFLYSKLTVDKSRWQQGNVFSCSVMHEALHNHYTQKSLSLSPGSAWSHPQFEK
Chain of Macaca fascicularis CD3ε/δ-Fc fusion heterodimer (Macaca fascicularis) (Q95LI8 22-105, stated change not applied, chain 2 of 2): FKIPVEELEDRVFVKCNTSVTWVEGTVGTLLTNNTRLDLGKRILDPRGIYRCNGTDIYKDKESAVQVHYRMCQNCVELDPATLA

[2] = target: Macaca fascicularis CD3ε/δ-Fc fusion heterodimer (Macaca fascicularis) (UniProt Q95LI8); test: SPR, cyno against human CD3ε/δ
[3] = target: human CD123 on cells (human) (UniProt P26951); test: flow cytometry, TF-1 cells, 3 µg antibody
Chain of human CD123 on cells (human) (P26951 19-378): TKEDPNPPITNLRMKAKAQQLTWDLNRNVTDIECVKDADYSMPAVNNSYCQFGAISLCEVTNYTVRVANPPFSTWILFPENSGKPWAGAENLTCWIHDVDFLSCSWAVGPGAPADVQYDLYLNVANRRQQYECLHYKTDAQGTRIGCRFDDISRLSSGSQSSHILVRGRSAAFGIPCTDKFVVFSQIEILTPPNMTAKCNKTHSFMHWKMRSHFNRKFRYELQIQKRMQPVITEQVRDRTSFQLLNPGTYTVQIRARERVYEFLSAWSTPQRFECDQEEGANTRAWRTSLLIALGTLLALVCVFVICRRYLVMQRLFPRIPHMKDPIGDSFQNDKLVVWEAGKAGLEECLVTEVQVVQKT

[4] = target: human CD123 on cells (human) (UniProt P26951); test: flow cytometry, THP-1 cells, 3 µg antibody
[5] = target: Macaca fascicularis CD3ε/δ-Fc fusion heterodimer (Macaca fascicularis) (UniProt Q95LI8); test: SPR Biacore, Fab; unit inferred
[6] = target: human CD123 on cells (human) (UniProt P26951); test: cell-based or functional assay
[7] = target: Macaca fascicularis CD3ε/δ-Fc fusion heterodimer (Macaca fascicularis) (UniProt Q95LI8); test: SPR, CD3ε/δ-Fc captured, Fab analyte

| Binder | ratio KD(cy)/KD(hu) [2] | % FITC positive cells [3] | % FITC positive cells [4] | other results |
| --- | --- | --- | --- | --- |
| B1 | 4 |  |  | Kd [1]: 4.8 nM |
| B2 |  | 31.1% | 48.8% |  |
| B3 |  | 50.2% | 88.7% |  |
| B4 |  | 60.7% | 99.7% |  |
| B5 |  | 9.3% | 24% |  |
| B6 |  |  |  | Kd [5]: 43.4 nM |
| B7 |  | 31.6% | 99% | EC50 cytotoxic assay (THP-1), geomean [6]: 0.0122 µg/mL |
| B8 |  |  |  | Activity EC50 (cytotoxic assay, THP-1 targets + primary human T cells) [6]: 0.016 µg/mL |
| B9 | 1 |  |  | Kd [7]: 42 nM; koff [7]: 0.0042 s⁻¹; kon [7]: 100000 M⁻¹ s⁻¹ |
| B10 | 1 |  |  | Kd [7]: 4.3 nM; koff [7]: 0.00015 s⁻¹; kon [7]: 34000 M⁻¹ s⁻¹ |
| B11 | 1 |  |  | Kd [7]: 32 nM; koff [7]: 0.0059 s⁻¹; kon [7]: 180000 M⁻¹ s⁻¹ |
| B12 |  |  |  | Kd [5]: 9.07 nM |

Reference: patent US20180222987A1
